According to patent publication US20200297862A1 (Zymeworks, published 2020):

How the values were obtained:
[1] = target: T1, Recombinant human HER2 (human, UniProt P04626 23-652); test: SPR as in Example 12, one-armed antibody, pre-SEC, against v10013
T1 construct: extracellular domain

[2] = target: T1, Recombinant human HER2; test: SPR as in Example 12, one-armed antibody, post-SEC, against v10013

B1: Variant 10014 (antibody, name in Kabat numbering, V domains shown)
VH: EVQLVESGGGLVQPGGSLRLSCAASGFTFADYTMDWVRQAPGKGLEWVADVNPNSGGSIYNQRFKGRFTLSVDRSKNTLYLQMNSLRAEDTAVYYCARNLGPSFYFDYWGQGTLVTVSS
VL: DIQMTQSPSSLSASVGDRVTITCKASQDVSIGVAWYQQKPGKAPKLLIYSASYRYTGVPSRFSGSGSGTDFTLTISSLQPEDFATYYCQQYYIYPATFGQGTKVEIK
notes: also called v10014; OAA variant
- Fold wrt WT (KD(WT)/KD(mut)) [1]: 8.1 fold
- Fold wrt WT (KD(WT)/KD(mut)) [2]: 7 fold
